According to paper PMC4980433 (Molecular Cell, 2016):
Where a chain is given by its changes, count along the chain named. In names and notes the source's numbering stands.

Experiments:
[1] = molecular target: TNKS SAM Y1073A (human, UniProt O95271 1018-1093, Y1073A^T1); assay: ITC
[2] = molecular target: T1, TNKS SAM Y1073A, O95271; assay: ITC; conditions: chain shown with the change; N = 0.72±0.01
T1 chain: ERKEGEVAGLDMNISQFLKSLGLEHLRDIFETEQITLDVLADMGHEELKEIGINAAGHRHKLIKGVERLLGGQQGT

[3] = molecular target: the molecule itself; assay: ultracentrifugation sedimentation assay; purified SAM domains (25 μM) centrifuged at an average 200,000 x g, 20°C, 1 hr; total, supernatant and pellet on SDS-PAGE with Coomassie staining; polymers partition into the pellet; proteins of Figure 5A affinity purified
[4] = molecular target: the molecule itself; assay: crystal structure; SAM domain mutants crystallized; head-to-tail (EH-ML) filaments in the crystals; molecular replacement

B1: TNKS SAM V1056W (domain or fragment)
chain: T1 chain with V39W, A56Y
**Q.** What does the source list for B1?
**A.** Kd [1]: 860 nM; Kd [2]: 820 nM; other: ΔH [2]: -6 kcal/mol; other: ΔS [2]: 7.7 cal/mol/deg

B2: TNKS2 SAM domain (867-940), wild type (domain or fragment, human, UniProt Q9H2K2 867-940, looked up)
chain: EKKEVPGVDFSITQFVRNLGLEHLMDIFEREQITLDVLVEMGHKELKEIGINAYGHRHKLIKGVERLISGQQGL
notes: SAM domain of human Tankyrase 2 (TNKS2, ARTD6), residues 867-940; Forms polydisperse polymers (filaments); theoretical MW about 9 kDa; also called TNKS2 WT
**Q.** Does B2 bind [3]?
**A.** binds

B3: TNKS SAM D1055R (domain or fragment, human, UniProt O95271 1018-1093, looked up)
chain: T1 chain with D38R, A56Y
notes: SAM domain of human Tankyrase (TNKS), residues 1018-1093, with D1055R; Polymer-breaking mutant used for crystallization (two crystal forms); also called TNKS D1055R^T1 SAM domain
**Q.** Does B3 bind [4]?
**A.** binds
